{"source": "patent US20030235860A1", "about": "“Interactions between AR, ER, TR2, and TR4” (priority 1999, published 2003)", "key": {"[1]": {"molecular_target": "T1, interaction between the GAL4-ER and VPI6-TR2 (Homo sapiens, UniProt P03372, G400V)", "T1 construct": "GAL4-DBD fused with ER-LBD (GAL4-ER, aa 282 to 595); expressed in transfected cells; host or cells: H1299, PC-3", "T1 sequence (P03372 282-595 G400V)": "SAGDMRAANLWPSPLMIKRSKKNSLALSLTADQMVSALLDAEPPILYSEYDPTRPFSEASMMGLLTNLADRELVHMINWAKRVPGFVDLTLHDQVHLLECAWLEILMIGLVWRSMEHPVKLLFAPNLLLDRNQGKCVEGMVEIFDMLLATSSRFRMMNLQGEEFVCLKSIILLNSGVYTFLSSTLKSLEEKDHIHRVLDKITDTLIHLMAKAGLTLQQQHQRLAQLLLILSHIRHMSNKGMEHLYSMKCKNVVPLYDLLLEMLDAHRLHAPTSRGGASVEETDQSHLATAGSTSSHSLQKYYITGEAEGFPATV", "T1 sequence (P13056 1-603 partner)": "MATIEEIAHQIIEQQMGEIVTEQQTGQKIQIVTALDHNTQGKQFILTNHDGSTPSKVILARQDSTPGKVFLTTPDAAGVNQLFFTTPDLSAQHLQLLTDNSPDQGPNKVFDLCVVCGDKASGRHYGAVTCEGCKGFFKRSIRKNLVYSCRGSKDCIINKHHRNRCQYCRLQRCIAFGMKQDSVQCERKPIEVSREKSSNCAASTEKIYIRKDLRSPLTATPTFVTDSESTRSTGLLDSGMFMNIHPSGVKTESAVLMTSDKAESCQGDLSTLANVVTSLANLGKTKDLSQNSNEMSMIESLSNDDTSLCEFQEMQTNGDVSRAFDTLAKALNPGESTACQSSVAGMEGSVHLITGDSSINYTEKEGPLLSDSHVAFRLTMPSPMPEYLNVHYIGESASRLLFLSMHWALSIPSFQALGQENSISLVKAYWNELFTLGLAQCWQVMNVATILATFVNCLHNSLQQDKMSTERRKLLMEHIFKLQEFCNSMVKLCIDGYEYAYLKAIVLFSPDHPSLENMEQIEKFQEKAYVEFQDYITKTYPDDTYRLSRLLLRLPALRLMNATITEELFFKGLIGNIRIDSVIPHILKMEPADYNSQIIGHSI", "assay": "Mammalian two-hybrid assay GAL4-ER / VP16-TR2", "type": "cell-based", "settings": "PC-3 cells; presence of E2; co-transfection of blocker plasmid", "experimental": "Transfections were performed using the calcium-phosphate precipitation method described above. […] 3 μg of a VPI6-TR2 expression plasmid and 3 μg pG5-CAT reporter plasmid. CAT assays were performed as described above.\nCells were also transfected with a β-galactosidase expression plasmid, pCMV-β-gal, as an internal control for transfection efficiency."}, "GR": {"molecular_target": "T2, GR (Homo sapiens, UniProt P04150)", "T2 construct": "expressed in transfected cells; host or cells: H1299, PC-3 (pSG5-GR)", "T2 sequence (P04150 1-777)": "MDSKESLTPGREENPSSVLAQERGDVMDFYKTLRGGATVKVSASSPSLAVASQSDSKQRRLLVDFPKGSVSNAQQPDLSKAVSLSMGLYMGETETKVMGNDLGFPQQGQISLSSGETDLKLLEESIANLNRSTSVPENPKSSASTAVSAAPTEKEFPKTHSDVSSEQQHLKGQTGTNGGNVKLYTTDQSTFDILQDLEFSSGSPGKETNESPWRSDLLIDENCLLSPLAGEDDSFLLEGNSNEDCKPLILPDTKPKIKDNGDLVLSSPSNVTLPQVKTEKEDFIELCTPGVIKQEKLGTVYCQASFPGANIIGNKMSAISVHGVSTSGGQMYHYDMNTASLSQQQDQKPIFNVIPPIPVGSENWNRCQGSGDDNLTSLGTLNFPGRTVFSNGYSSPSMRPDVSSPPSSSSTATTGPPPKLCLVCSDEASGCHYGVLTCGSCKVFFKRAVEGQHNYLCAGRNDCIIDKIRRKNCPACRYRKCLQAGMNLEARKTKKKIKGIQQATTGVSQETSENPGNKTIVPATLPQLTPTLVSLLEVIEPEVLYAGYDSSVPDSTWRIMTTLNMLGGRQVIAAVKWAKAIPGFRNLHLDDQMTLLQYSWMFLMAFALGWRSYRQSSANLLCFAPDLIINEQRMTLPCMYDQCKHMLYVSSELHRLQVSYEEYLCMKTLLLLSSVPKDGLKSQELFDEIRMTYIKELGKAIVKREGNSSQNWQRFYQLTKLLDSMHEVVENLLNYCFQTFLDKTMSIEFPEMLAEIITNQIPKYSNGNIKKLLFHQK", "assay": "GR-mediated transactivation (MMTV reporter)", "type": "cell-based", "experimental": "To eliminate the potential artificial effects caused by overexpression of exogenous ER, T47D cells were used as a model to test the TR2 suppression effect on the endogenous ER-mediated transactivation. T47D cells were transfected with 1 μg of ERE-CAT reporter plasmid together with increasing amounts of the TR2 expression plasmid. […] All of the cells also were transfected with a galactosidase expression plasmid, pCMV-β-gal to normalize the transfection efficiency. As expected, the TR2 can still repress the endogenous ER-mediated ERE-CAT activity (FIG. 8B). For a control, the potential suppression effect of the TR2 on other steroid receptors-mediated transactivation was also tested, such as PR or GR. H1299 cells were co-transfected with 1 μg of MMTV-CAT reporter plasmid and 1 μg of PR or GR expression plasmid together with increasing amounts of the TR2 expression vector. […] AU of the cells also were transfected with a β-galactosidase expression plasmid, pCMV-β-gal to normalize the transfection efficiency.\nAR is known to be highly involved in prostate cancer progression, and both TR2 and AR are expressed in prostate cancer, therefore the TR2 effect on AR transactivation activity was analyzed."}}, "note": "No end group written: not given here.", "data": [{"molecule": "ER-#6: interaction blocker, ER fragment aa 312-340, as HA-tagged peptide, expression plasmid or cleaved peptide (ADQMVSALLDAEPPILYSEYDPTRPFSEA; also: HA tag (position not given here); UniProt P03372 312-340, looked up, fragment)", "values": [{"measurement": "ER-TR2 interaction (GAL4-ER / VP16-TR2, pG5-CAT)", "setting": "[1]", "value": "suppressed"}]}, {"molecule": "TR2: human testicular orphan nuclear receptor 2, 603 amino acids (protein, UniProt P13056 1-603, looked up, full-length, human testicular orphan nuclear receptor 2, 603 amino acids) MATIEEIAHQIIEQQMGEIVTEQQTGQKIQIVTALDHNTQGKQFILTNHDGSTPSKVILARQDSTPGKVFLTTPDAAGVNQLFFTTPDLSAQHLQLLTDNSPDQGPNKVFDLCVVCGDKASGRHYGAVTCEGCKGFFKRSIRKNLVYSCRGSKDCIINKHHRNRCQYCRLQRCIAFGMKQDSVQCERKPIEVSREKSSNCAASTEKIYIRKDLRSPLTATPTFVTDSESTRSTGLLDSGMFMNIHPSGVKTESAVLMTSDKAESCQGDLSTLANVVTSLANLGKTKDLSQNSNEMSMIESLSNDDTSLCEFQEMQTNGDVSRAFDTLAKALNPGESTACQSSVAGMEGSVHLITGDSSINYTEKEGPLLSDSHVAFRLTMPSPMPEYLNVHYIGESASRLLFLSMHWALSIPSFQALGQENSISLVKAYWNELFTLGLAQCWQVMNVATILATFVNCLHNSLQQDKMSTERRKLLMEHIFKLQEFCNSMVKLCIDGYEYAYLKAIVLFSPDHPSLENMEQIEKFQEKAYVEFQDYITKTYPDDTYRLSRLLLRLPALRLMNATITEELFFKGLIGNIRIDSVIPHILKMEPADYNSQIIGHSI", "values": [{"measurement": "GR-mediated transactivation (MMTV-CAT)", "setting": "GR; H1299 cells, 10^−8 M glucocorticoid, increasing TR2", "value": "little effect"}, {"measurement": "GR-mediated transactivation (MMTV-CAT)", "setting": "GR; PC-3 cells, 10 nM dexamethasone, pCMV-TR2", "value": "less suppression effect"}, {"measurement": "GR-mediated transcription (MMTV-CAT)", "setting": "GR; T47D cells, Example 2", "value": "marginal effect"}]}]}
